Experimental data reported in patent US20110263454A1, “Methods of Identifying Functional Characteristics of Promoters, Transcription Modifying Proteins and Transcription Modulating Agents” (Salk Institute for Biological Studies, priority 2008, published 2011).

Assays:
hPPARg2 promoter = assay: NHR-promoter luciferase screen, hPPARg2 promoter; assay type: cell-based, human; conditions: for Luc. act., normalized to lacZ / Normalized Luc. act., normalized to control: PPARG2 promoter, hormone receptor with or without its ligand; for Normalized Luc. act., normalized to control: relative to control; for Results of assays of transcription factor (+/- ligand) with hPPARg2: Table 6d, luciferase activity relative to control (control = 1.00)
In short: (§1)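 CV-1 cells were co-transfected with 50 ng NHR (homodimer or NHR/RXR heterodimer), 100 ng promoter-luciferase construct and 50 ng LacZ. Luciferase was normalized to LacZ and to a no-NHR/no-ligand control.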

hMyoD promoter = assay: NHR-promoter luciferase screen, hMyoD promoter; assay type: cell-based, human; conditions: for Luc. act., normalized to lacZ / Normalized Luc. act., normalized to control: MyoD promoter reporter, co-transfected HR, without or with its ligand; for Normalized Luc. act., normalized to control: relative to control; for luciferase activity normalized to lacZ activity and to a control, hMyoD: hMyoD promoter-luciferase, CV-1 cells, NHR +/- ligand, control = 1.00
In short: as §1

hG6PD promoter = assay: NHR-promoter luciferase screen, hG6PD promoter; assay type: cell-based, human; conditions: for Luc. act., normalized to lacZ / Normalized Luc. act., normalized to control: G6PD promoter reporter, co-transfected HR, without or with its ligand; for Normalized Luc. act., normalized to control: relative to control; for luciferase activity normalized to lacZ activity and to a control, hG6PD: hG6PD promoter-luciferase, CV-1 cells, NHR +/- ligand, control = 1.00
In short: as §1

hMDR1 promoter = assay: NHR-promoter luciferase screen, hMDR1 promoter; assay type: cell-based, human; conditions: for Luc. act., normalized to lacZ / Normalized Luc. act., normalized to control: MDR1 promoter, HR/ligand component; for hMDR1 promoter reporter activity: transcription factor +/- ligand, control = 1.00
In short: as §1

mGhrelin promoter = assay: NHR-promoter luciferase screen, mGhrelin promoter; assay type: cell-based, mouse; conditions: for Luc. act., normalized to lacZ / Normalized Luc. act., normalized to control: Table 8, mGhrelin; for Results of assays of transcription factor (+/- ligand) with mGhrelin: Table 6d, luciferase activity relative to control (control = 1.00)
In short: as §1

mLeptin promoter = assay: NHR-promoter luciferase screen, mLeptin promoter; assay type: cell-based, mouse; conditions: for Luc. act., normalized to lacZ / Normalized Luc. act., normalized to control: Table 7, mLeptin; for Results of assays of transcription factor (+/- ligand) with mLeptin: Table 6d, luciferase activity relative to control (control = 1.00)
In short: as §1

Row | Molecule | Luc. act., normalized to lacZ (hPPARg2 promoter) | Normalized Luc. act., normalized to control (hPPARg2 promoter) | Results of assays of transcription factor (+/- ligand) with hPPARg2 (hPPARg2 promoter) | Luc. act., normalized to lacZ (hMyoD promoter) | Normalized Luc. act., normalized to control (hMyoD promoter) | luciferase activity normalized to lacZ activity and to a control, hMyoD (hMyoD promoter) | Luc. act., normalized to lacZ (hG6PD promoter) | Normalized Luc. act., normalized to control (hG6PD promoter) | luciferase activity normalized to lacZ activity and to a control, hG6PD (hG6PD promoter) | Luc. act., normalized to lacZ (hMDR1 promoter) | Normalized Luc. act., normalized to control (hMDR1 promoter) | hMDR1 promoter reporter activity (hMDR1 promoter) | Luc. act., normalized to lacZ (mGhrelin promoter) | Normalized Luc. act., normalized to control (mGhrelin promoter) | Results of assays of transcription factor (+/- ligand) with mGhrelin (mGhrelin promoter) | Luc. act., normalized to lacZ (mLeptin promoter) | Normalized Luc. act., normalized to control (mLeptin promoter) | Results of assays of transcription factor (+/- ligand) with mLeptin (mLeptin promoter)
1 | GCNF: Germ Cell Nuclear Factor (NR6A1, GCNF1), cDNA driver (protein, UniProt Q15406 1-480, looked up) Nuclear receptor subfamily 6 …: MERDEPPPSGGGGGGGSAGFLEPPAALPPPPRNGFCQDELAELDPGTISVSDDRAEQRTCLICGDRATGLHYGIISCEGCKGFFKRSICNKRVYRCSRDKNCVMSRKQRNRCQYCRLLKCLQMGMNRKAIREDGMPGGRNKSIGPVQISEEEIERIMSGQEFEEEANHWSNHGDSDHSSPGNRASESNQPSPGSTLSSSRSVELNGFMAFREQYMGMSVPPHYQYIPHLFSYSGHSPLLPQQARSLDPQSYSLIHQLLSAEDLEPLGTPMLIEDGYAVTQAELFALLCRLADELLFRQIAWIKKLPFFCELSIKDYTCLLSSTWQELILLSSLTVYSKQIFGELADVTAKYSPSDEELHRFSDEGMEVIERLIYLYHKFHQLKVSNEEYACMKAINFLNQDIRGLTSASQLEQLNKRYWYICQDFTEYKYTHQPNRFPDLMMCLPEIRYIAGKMVNVPLEQLPLLFKVVLHSCKTSVGKE | 1.4 | 0.7 | 0.69 | 50.5 | 0.8 | 0.80 | 46.1 | 1.2 | 1.23 | 0.3 | 0.8 | 0.83 | 50.7 | 1.0 | 0.97 | 1.5 | 0.5 | 0.50
2 | NR4a3: NR4a3 (NR4A3; NOR1), nuclear hormone receptor cDNA driver (protein, UniProt Q92570 1-626, looked up) Nuclear receptor subfamily 4 …: MPCVQAQYSPSPPGSSYAAQTYSSEYTTEIMNPDYTKLTMDLGSTEITATATTSLPSISTFVEGYSSNYELKPSCVYQMQRPLIKVEEGRAPSYHHHHHHHHHHHHHHQQQHQQPSIPPASSPEDEVLPSTSMYFKQSPPSTPTTPAFPPQAGALWDEALPSAPGCIAPGPLLDPPMKAVPTVAGARFPLFHFKPSPPHPPAPSPAGGHHLGYDPTAAAALSLPLGAAAAAGSQAAALESHPYGLPLAKRAAPLAFPPLGLTPSPTASSLLGESPSLPSPPSRSSSSGEGTCAVCGDNAACQHYGVRTCEGCKGFFKRTVQKNAKYVCLANKNCPVDKRRRNRCQYCRFQKCLSVGMVKEVVRTDSLKGRRGRLPSKPKSPLQQEPSQPSPPSPPICMMNALVRALTDSTPRDLDYSRYCPTDQAAAGTDAEHVQQFYNLLTASIDVSRSWAEKIPGFTDLPKEDQTLLIESAFLELFVLRLSIRSNTAEDKFVFCNGLVLHRLQCLRGFGEWLDSIKDFSLNLQSLNLDIQALACLSALSMITERHGLKEPKRVEELCNKITSSLKDHQSKGQALEPTESKVLGALVELRKICTLGLQRIFYLKLEDLVSPPSIIDKLFLDTLPF | 1.1 | 0.6 | 0.57 | 56.1 | 0.9 | 0.89 | 43.4 | 1.2 | 1.16 | 0.2 | 0.7 | 0.65 | 29.4 | 0.6 | 0.56 | 1.8 | 0.6 | 0.62
